Data taken from US20210132065A1, “MAMMALIAN MHC PEPTIDE DISPLAY AS AN EPITOPE SELECTION TOOL FOR VACCINE DESIGN” (ETH Zürich, priority 2018, published 2021).
“Also recorded” adds a separate entry of the source. Where two headings read alike, the source gives them in different places. Where no end group is shown, it is not given here.

Assays:
HLA-DRB1_15 = HLA-DRB1_15 (Homo sapiens, UniProt P01903+P01911); format: cell-based; conditions: for MCR surface expression: peptide covalently linked to beta chain, anti-HLA-DR APC antibody, FACS
Sequence of HLA-DRB1_15 (P01911 30-227 limits assumed): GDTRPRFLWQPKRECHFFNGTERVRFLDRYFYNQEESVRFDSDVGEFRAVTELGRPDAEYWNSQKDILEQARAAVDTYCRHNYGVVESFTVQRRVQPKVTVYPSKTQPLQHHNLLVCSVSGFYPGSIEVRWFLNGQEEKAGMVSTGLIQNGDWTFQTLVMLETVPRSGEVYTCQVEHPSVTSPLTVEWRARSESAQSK
Sequence of HLA-DRB1_15 (P01903 26-216 limits assumed): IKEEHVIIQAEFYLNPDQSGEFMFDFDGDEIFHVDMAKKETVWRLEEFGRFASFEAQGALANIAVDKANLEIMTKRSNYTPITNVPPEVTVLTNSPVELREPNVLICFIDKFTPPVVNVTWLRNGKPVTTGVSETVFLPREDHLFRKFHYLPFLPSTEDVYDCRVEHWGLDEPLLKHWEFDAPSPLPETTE

HLA-DRB5_1 = HLA-DRB5_1 (Homo sapiens, UniProt P01903+Q30154); format: cell-based; conditions: for MCR surface expression: peptide covalently linked to beta chain, anti-HLA-DR APC antibody, FACS
Sequence of HLA-DRB5_1 (Q30154 30-227 limits assumed): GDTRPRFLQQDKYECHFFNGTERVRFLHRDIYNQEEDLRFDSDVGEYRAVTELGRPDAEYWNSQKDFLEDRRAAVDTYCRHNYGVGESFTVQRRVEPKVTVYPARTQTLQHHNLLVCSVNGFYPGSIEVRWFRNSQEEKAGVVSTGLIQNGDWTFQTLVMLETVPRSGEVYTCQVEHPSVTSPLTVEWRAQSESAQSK
Sequence of HLA-DRB5_1 (P01903 26-216 limits assumed): as the sequence (P01903 26-216 limits assumed) above

[1] = FIG. 6, anti-CD3e or anti-HLA-DR PE antibodies, peptides containing the core epitope with different flanking regions

Substance	MCR surface expression (HLA-DRB1_15)	MCR surface expression (HLA-DRB1_15; listed as MP1103-121)	MCR surface expression (HLA-DRB5_1)	MCR surface expression (HLA-DRB5_1; listed as MP1103-121)	presentation (MCR surface expression) (HLA-DRB1_15; [1])	presentation (MCR surface expression) (HLA-DRB5_1; [1])
MP1103-120: influenza Matrix Protein 1 peptide, amino acids 103-120, covalently linked to the HLA beta chain of the MCR (LKREITFHGAKEISLSYS; also: covalently linked to HLA beta chain of the MCR; UniProt P03485 103-120, looked up, fragment)	detectable at very low levels; also recorded: very low MCR expression	low surface expression	barely detected; also recorded: not expressed at all	not to bind at all		
MP162-72: influenza Matrix Protein 1-derived peptide comprising amino acids 62-72, covalently linked to the HLA beta chain of the MCR (FVFTLTVPSER; also: covalently linked to HLA beta chain of the MCR; UniProt P03485 62-72, looked up, fragment)	not the other HLAs tested		efficient expression			
MP1107-117: core epitope of influenza Matrix Protein 1, amino acids 107-117, tested within peptides with different flanking regions (ITFHGAKEISL; UniProt P03485 107-117, looked up, fragment)					not by HLA-DRB1_15	nor HLA-DRB5_1
